One variant from IntAct's records for PubMed 23650535 can be followed below.

B1: Receptor-type tyrosine-protein phosphatase eta (Homo sapiens), Q12913 (parent)
chain: MKPAAREARLPPRSPGLRWALPLLLLLLRLGQILCAGGTPSPIPDPSVATVATGENGITQISSTAESFHKQNGTGTPQVETNTSEDGESSGANDSLRTPEQGSNGTDGASQKTPSSTGPSPVFDIKAVSISPTNVILTWKSNDTAASEYKYVVKHKMENEKTITVVHQPWCNITGLRPATSYVFSITPGIGNETWGDPRVIKVITEPIPVSDLRVALTGVRKAALSWSNGNGTASCRVLLESIGSHEELTQDSRLQVNISGLKPGVQYNINPYLLQSNKTKGDPLGTEGGLDASNTERSRAGSPTAPVHDESLVGPVDPSSGQQSRDTEVLLVGLEPGTRYNATVYSQAANGTEGQPQAIEFRTNAIQVFDVTAVNISATSLTLIWKVSDNESSSNYTYKIHVAGETDSSNLNVSEPRAVIPGLRSSTFYNITVCPVLGDIEGTPGFLQVHTPPVPVSDFRVTVVSTTEIGLAWSSHDAESFQMHITQEGAGNSRVEITTNQSIIIGGLFPGTKYCFEIVPKGPNGTEGASRTVCNRTVPSAVFDIHVVYVTTTEMWLDWKSPDGASEYVYHLVIESKHGSNHTSTYDKAITLQGLIPGTLYNITISPEVDHVWGDPNSTAQYTRPSNVSNIDVSTNTTAATLSWQNFDDASPTYSYCLLIEKAGNSSNATQVVTDIGITDATVTELIPGSSYTVEIFAQVGDGIKSLEPGRKSFCTDPASMASFDCEVVPKEPALVLKWTCPPGANAGFELEVSSGAWNNATHLESCSSENGTEYRTEVTYLNFSTSYNISITTVSCGKMAAPTRNTCTTGITDPPPPDGSPNITSVSHNSVKVKFSGFEASHGPIKAYAVILTTGEAGHPSADVLKYTYEDFKKGASDTYVTYLIRTEEKGRSQSLSEVLKYEIDVGNESTTLGYYNGKLEPLGSYRACVAGFTNITFHPQNKGLIDGAESYVSFSRYSDAVSLPQDPGVICGAVFGCIFGALVIVTVGGFIFWRKKRKDAKNNEVSFSQIKPKKSKLIRVENFEAYFKKQQADSNCGFAEEYEDLKLVGISQPKYAAELAENRGKNRYNNVLPYDISRVKLSVQTHSTDDYINANYMPGYHSKKDFIATQGPLPNTLKDFWRMVWEKNVYAIIMLTKCVEQGRTKCEEYWPSKQAQDYGDITVAMTSEIVLPEWTIRDFTVKNIQTSESHPLRQFHFTSWPDHGVPDTTDLLINFRYLVRDYMKQSPPESPILVHCSAGVGRTGTFIAIDRLIYQIENENTVDVYGIVYDLRMHRPLMVQTEDQYVFLNQCVLDIVRSQKDSKVDLIYQNTTAMTIYENLAPVTTFGKTNGYIA

Variants of B1 are the subject of the test. The note with it: with flt3_human FLT3, P36888.
Sequence of flt3_human FLT3, P36888 (P36888 whole entry): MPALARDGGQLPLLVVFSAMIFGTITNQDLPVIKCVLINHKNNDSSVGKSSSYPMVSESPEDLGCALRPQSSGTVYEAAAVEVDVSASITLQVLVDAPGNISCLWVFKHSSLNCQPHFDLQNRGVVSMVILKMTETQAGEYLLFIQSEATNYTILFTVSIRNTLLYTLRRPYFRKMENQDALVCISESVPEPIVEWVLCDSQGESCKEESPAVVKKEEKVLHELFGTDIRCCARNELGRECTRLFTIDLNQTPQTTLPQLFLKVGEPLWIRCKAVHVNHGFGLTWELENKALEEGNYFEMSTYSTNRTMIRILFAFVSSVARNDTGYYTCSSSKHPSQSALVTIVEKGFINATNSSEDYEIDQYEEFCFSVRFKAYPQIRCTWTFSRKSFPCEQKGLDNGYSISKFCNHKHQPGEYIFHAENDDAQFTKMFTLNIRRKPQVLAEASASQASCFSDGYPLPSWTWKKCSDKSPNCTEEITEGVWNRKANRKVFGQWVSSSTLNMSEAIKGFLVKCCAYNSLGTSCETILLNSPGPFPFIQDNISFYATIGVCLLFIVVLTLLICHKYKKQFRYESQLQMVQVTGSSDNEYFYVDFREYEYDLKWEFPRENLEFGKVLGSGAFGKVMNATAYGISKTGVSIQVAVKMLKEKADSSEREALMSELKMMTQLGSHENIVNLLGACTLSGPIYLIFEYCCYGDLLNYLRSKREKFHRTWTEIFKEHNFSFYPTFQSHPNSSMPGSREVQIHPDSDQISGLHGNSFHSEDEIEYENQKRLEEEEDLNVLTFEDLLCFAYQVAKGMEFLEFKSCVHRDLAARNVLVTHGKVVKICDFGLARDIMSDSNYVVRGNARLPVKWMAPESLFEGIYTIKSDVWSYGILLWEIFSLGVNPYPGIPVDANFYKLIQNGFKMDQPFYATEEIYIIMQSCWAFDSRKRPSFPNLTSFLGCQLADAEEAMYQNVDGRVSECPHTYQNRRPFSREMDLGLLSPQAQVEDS
As for C1239S, the “effect of a mutation on the interaction” value is “increasing interaction strength”.
